According to patent publication US20110008406A1:

Experiments:
[1] = molecular target: T1, silk fibroin, sericin-depleted, from degummed Bombyx mori silk (dissolved in 9.3 M LiBr, dialysed, then gelled or precipitated) (Bombyx mori), P05790; experiment: HPLC of 23RGD extracted from silk precipitates; plateau over the formulations
[2] = molecular target: T1, silk fibroin, sericin-depleted, from …; experiment: HPLC of 23RGD extracted from lyophilized silk precipitate, formulation AVLO
[3] = molecular target: T1, silk fibroin, sericin-depleted, from …; experiment: HPLC of 23RGD extracted from silk precipitate, formulation AVLO, against the calculated molar ratio
[4] = molecular target: T1, silk fibroin, sericin-depleted, from …; experiment: HPLC of 23RGD extracted from lyophilized silk precipitate, formulation AVHI
[5] = molecular target: T1, silk fibroin, sericin-depleted, from …; experiment: HPLC of 23RGD extracted from the final rinsed 23RGD-enhanced silk gel
[6] = molecular target: T1, silk fibroin, sericin-depleted, from …; experiment: HPLC of 23RGD extracted from silk precipitate, formulation BASE, against the calculated molar ratio
[7] = molecular target: T1, silk fibroin, sericin-depleted, from …; experiment: HPLC of 23RGD extracted from lyophilized silk precipitate, formulation 0.6S 3R 10:1
[8] = molecular target: T1, silk fibroin, sericin-depleted, from …; experiment: HPLC of 23RGD extracted from lyophilized silk precipitate, formulation printed as RLO
[9] = molecular target: T1, silk fibroin, sericin-depleted, from …; experiment: HPLC of 23RGD extracted from lyophilized silk precipitate, formulation printed as RMED
[10] = molecular target: T1, silk fibroin, sericin-depleted, from …; experiment: HPLC of 23RGD extracted from lyophilized silk precipitate, formulation RHI
[11] = molecular target: T1, silk fibroin, sericin-depleted, from …; experiment: HPLC of 23RGD extracted from lyophilized silk precipitate, formulation BASE
[12] = molecular target: T1, silk fibroin, sericin-depleted, from …; experiment: HPLC of 23RGD extracted from silk precipitate, formulation SCLO, against the calculated molar ratio
[13] = molecular target: T1, silk fibroin, sericin-depleted, from …; experiment: HPLC of 23RGD extracted from silk precipitate, formulation ECLO, against the calculated molar ratio
[14] = molecular target: T1, silk fibroin, sericin-depleted, from …; experiment: HPLC of 23RGD extracted from lyophilized silk precipitate, formulation SCVLO
[15] = molecular target: T1, silk fibroin, sericin-depleted, from …; experiment: HPLC of 23RGD extracted from silk precipitate, formulation printed as RMED, against the calculated molar ratio
[16] = molecular target: T1, silk fibroin, sericin-depleted, from …; experiment: HPLC and dry mass of silk precipitates, over all formulations
[17] = molecular target: T1, silk fibroin, sericin-depleted, from …; experiment: HPLC of 23RGD extracted from lyophilized silk precipitate, formulation SCLO

- apparent saturation, RGD molecules per molecule of silk (mol 23RGD per mol silk) [1]: 10
- 23RGD:silk ratio (bound) (mol 23RGD per mol silk) [2]: 5.2
- bound RGD, fold of the calculated (expected) amount [3]: 2 fold
- 23RGD:silk ratio (bound) (mol 23RGD per mol silk) [4]: 10.5
- 23RGD:silk molar ratio (bound) (mol 23RGD per mol silk) [5]: 3.35
- bound RGD, fold of the calculated (expected) amount [6]: 2 fold
- 23RGD:silk ratio (bound) (mol 23RGD per mol silk) [7]: 10
- 23RGD:silk ratio (bound) (mol 23RGD per mol silk) [8]: 1.1
- 23RGD:silk ratio (bound) (mol 23RGD per mol silk) [9]: 6.95
- 23RGD:silk ratio (bound) (mol 23RGD per mol silk) [10]: 10.7
- 23RGD:silk ratio (bound) (mol 23RGD per mol silk) [11]: 8.7
- bound RGD, fold of the calculated (expected) amount [12]: 2 fold
- bound RGD, fold of the calculated (expected) amount [13]: 1.5 fold
- 23RGD:silk ratio (bound) (mol 23RGD per mol silk) [14]: 11
- bound RGD, fold of the calculated (expected) amount [15]: 2 fold
- percent of 23RGD precipitated with silk [16]: 5 to 30%
- 23RGD:silk ratio (bound) (mol 23RGD per mol silk) [17]: 9.9
Binder: GRGDIPASSKGGGGSRLLLLLLR (modifications not checked) [23RGD peptide (amphiphilic peptide: RGD motif, spacer region, leucine tail; 23 amino acids)]
